One test concerns human ES cells. Put plainly: Study for addition-concentration of BMP signaling pathway-activating substance in cell cluster production (Experiment 7). It counts as cell-based. As to the method: In Experiment 7, a study of cell cluster production efficiency was performed for concentration of the BMP signaling pathway-activating substance in step (2), using human ES cells. The same experimental manipulations as in Experiment 2 (see the upper section of FIG. 8) were performed, and the concentration of BMP4 in the medium in step (2) was set to 7 conditions of 0.025 nM, 0.1 nM, 0.25 nM, 0.5 nM, 1.5 nM, 5 nM, and addition-free control.
On day 28 after the start of suspension culturing, bright-field observation was performed with an inverted microscope.
In addition, evaluation was performed for the cell clusters formed by adding each concentration of BMP4 according to the following four stages: cell cluster in a form close to spherical, whose 80% or more of the entire circumference was covered with non-neural epithelial tissue part (Grade 1, example=FIG. 20A); cell cluster whose 40% to 80% of the entire circumference was covered with non-neural epithelial tissue part or cell cluster in a distorted form (Grade 2, example=FIG. 20B); cell cluster whose ratio of non-neural epithelial tissue parts in the surface of the cell cluster was 40% or less (Grade 3, example=FIG. 20C); and cell cluster in which no non-neural epithelial tissue part was formed (Grade 4, example=FIG. 20D). The evaluation was performed by bright-field observation with an inverted microscope. As a result, non-neural epithelial tissues were not observed under the culture condition without adding of BMP4, as shown in FIG. 20E. Under the culture conditions in which 0.5 nM or more BMP4 was added in step (2), the Grade 1 cell clusters in a form close to a sphere, whose 80% or more of the entire circumference was covered with the non-neural epithelial tissue parts, were formed with high efficiency.

The subject of the next test is human iPS cells. Put plainly: Study for time to add BMP signaling pathway-activating substance in cell cluster production (Experiment 11). It counts as cell-based. Particulars: observed day 13. On the procedure: In Experiment 11, study of cell cluster production efficiency was performed for time to add the BMP signaling pathway-activating substance, that is, the start time of step (2), by changing the time to add the BMP signaling pathway-activating substance from day 1 to day 6 after the start of suspension culturing, using human iPS cells. The experiments were performed in accordance with the procedures shown in the upper section of FIG. 25, and the same experimental manipulations as in Experiment 3 were performed except for those specifically indicated.
Maintenance-cultured human iPS cells were subjected to step (a), and then the human iPS cells dispersed into single cells were suspended into 100 μl of a serum-free medium in a non-cell-adhesive 96-well three-dimensional culture vessel (PrimeSurface 96 slit-well plate, MS-9096S, manufactured by Sumitomo Bakelite Co., Ltd.) to be 1×10^4 cells per well, and the cells were suspension-cultured under conditions of 37° C., 5% CO2. At the start of suspension culturing (day 0 after the start of suspension culturing, start of step (1)), Y27632 (final concentration 20 μM), IWP-2 (final concentration 2 μM) and SB-431542 (final concentration 1 μM) were added to the serum-free medium.
On any of days 1, 2, 3, 4, and 6 after the start of suspension culturing, a serum-free medium being free of Y27632 and containing IWP-2, SB-431542 and BMP4 was added at 100 μl per well (start of step (2)). BMP4 was added to the medium at 3 nM to be a final concentration in the well of 1.5 nM.
In addition, on day after the addition of a serum-free medium containing BMP4, the medium was half exchanged with a serum-free medium being free of Y27632 and BMP4 and containing SB-431542, K02288, FGF2, Heparin Sodium, and EGF (start of step (3c)). K02288, FGF2, Heparin Sodium, and EGF were added to the medium at 20 μM, 40 ng/ml, 20 μg/ml, and 40 ng/ml, respectively, to be final concentrations in the well were 10 μM, 20 ng/ml, 10 μg/ml, and 20 ng/ml. […]

Bounds are passed on as bounds.

B1: BMP4: BMP signaling pathway-activating substance, manufactured by R&D Systems (protein, UniProt P12644 293-408, looked up)
Bone morphogenetic protein 4: SPKHHSQRARKKNKNCRRHSLYVDFSDVGWNDWIVAPPGYQAFYCHGDCPFPLADHLNSTNHAIVQTLVNSVNSSIPKACCVPTELSAISMLYLDEYDKVVLKNYQEMVVEGCGCR
With B1, in the test on human ES cells (0.5 nM or more BMP4 added in step (2), day 28, formed with high efficiency), the “quality evaluation grade of cell clusters (circumference covered with non-neural epithelial tissue part)” value is given as “Grade 1 (cell cluster in a form close to spherical, whose 80% or more of the entire circumference was covered with non-neural epithelial tissue part)”. Besides, in the test with human ES cells (all BMP4 concentrations (0.025 to 5 nM) in step (2), day 28 after start of suspension culturing, bright-field observation), the “diameter of spherical cell clusters formed” value was “around 600 μm”. Further, the “concentration of BMP4 added in step (2) at which Grade 1 cell clusters were formed with high efficiency” value in the test with human ES cells (day 28, bright-field observation) was at least 0.5 nM. In addition, in the test on human iPS cells (BMP4 1.5 nM added on any of days 1, 2, and 3 after start of suspension culturing), the “formation of non-neural epithelial tissue on the surface of the cell aggregate” value is recorded as “a non-neural epithelial tissue was formed on the surface of the cell aggregate”. The “formation of cell aggregates having non-neural epithelial tissues on the surface with larger diameter” value in the test with human iPS cells (BMP4 1.5 nM added on day 2 after start of suspension culturing) was “most efficiently and stably formed”. Also, the “formation of non-neural epithelial tissue on the surface of the cell aggregates” value in the test on human iPS cells (BMP4 1.5 nM added on day 4 or 6 after start of suspension culturing) is reported as “no formation of non-neural epithelial tissue was observed”.

The values above are taken from US20210308188A1, “CELL CLUSTER INCLUDING OLFACTORY NEURON OR PRECURSOR CELL THEREOF, AND METHOD FOR PRODUCING SAME” (SUMITOMO CHEMICAL COMPANY, LIMITED, priority 2018, published 2021).
